The values that follow come from US20230203134A1 (TRUSTEES OF COLUMBIA UNIVERSITY IN THE CITY OF NEW YORK, published 2023).

For assay [1], the target named is T1, SARS-CoV-2 N-terminal domain (NTD) (SARS-CoV-2, UniProt P0DTC2 14-290).
T1 construct: range 1-290
Put plainly: ELISA (FIG. 10D-F). A general note: In an ELISA, binding on a coated surface is turned into a signal by an enzyme label.

In assay [2] the target is T1, SARS-CoV-2 N-terminal domain (NTD). Put plainly: quantitative ELISA (FIG. 16C, F, I).
Assay [3] has the same target. Put plainly: quantitative ELISA.
Assay [4] shares this target. Put plainly: ELISA.

B1: monoclonal antibody 4-18 (antibody, V domains shown)
VH: QVQLVESGGGVVQPGRSLRLSCAASGFTFSSYGMHWVRQAPGKGLEWVAVISYDGSNKHYADSVKGRFTISRDNSKNTLYLQMNSLRAEDTAVYYCAKDSGYNYGYSWFDPWGQGTLVTVSS
VL: SYELTQPPSVSVSPGQTARITCSADALAKQYAYWYQQKPGQAPVLVIYKDSERPSGIPERFSGSSSGTTVTLTISGVQAEDEADYYCQSTDNSGTYPNWVFGGGTKLTVL
notes: also called mAb 4-18; antibody number 4-18
Turning to B1, the binding result in assay [1] was “binds”.

B2: monoclonal antibody 2-17 (antibody, V domains shown)
VH: QVQLVQSGAEVKKPGSSVKVSCKASGGTFSSYAISWVRQAPGQGLEWMGGNIPIFGTANYAQKFQGRVTITADESTSTAYMELSSLRSEDTAVYYCARGVGYRGVIPLNWFDPWGQGTVVTVSS
VL: EIVMTQSPATLSVSPGERATLSCRASQSVSSDLAWYQHKPGQAPRLLIYGASTRATGIPVRFSGSGSGTEFTLTISSLQSEDFAVYYCQQYNNWPPFTFGGGTKVEIK
notes: also called mAb 2-17; antibody number 2-17
Turning to B2, the binding result in assay [2] is “binds”.

B3: monoclonal antibody 2-38 (antibody, V domains shown)
VH: EVQLVESGGGLVKPGGSLRLSCAASGFTFSSYSMNWVRQAPGKGLEWVSSISSSSSYIYYADSVKGRFTISRDNAKNSLYLQMNSLRAEDTAVYYCTRAGWELRLDAFDIWGQGTMVTVSS
VL: SSELTQDPAVSVALGQTVRITCQGDSLRSSYASWYQQKPGQAPILVIYDKNNRPSGIPDRFSGSSSGNTASLTITGAQAEDEADYYCNSRDSSGILFGGGTKLTVL
notes: also called mAb 2-38; antibody number 2-38
For B3, the binding result in assay [3] was “no binding”.

B4: monoclonal antibody 1-20 (antibody, V domains shown)
VH: EVQLVESGGGLIQPGGSLRLSCAASGLTVSSNYMSWVRQAPGKGLEWVSVIYSGGSTFYADSVKGRFTISRDNSKNTLYLQMNSLRAEDTAVYYCARDLFYYGMDVWGQGTTVTVSS
VL: DIQLTQSPSFLSASVGDRVTITCRASQGISSYLAWYQQKPGKAPKLLIYAASTLQSGVPSRFSGSGSGTEFTLTISSLQPEDFATYYCQQLNSYPCFGPGTKVDIK
notes: also called mAb 1-20; antibody number 1-20
Regarding B4, the binding result in assay [3] is “no binding”.

B5: monoclonal antibody 2-7 (antibody, V domains shown)
VH: QITLKESGPTLVKPTQTLTLTCTFSGFSLSTSGVGVGWIRQPPGKALEWLALIYWDDDKRYSPSLKSRLTITKDTSKNQVVLTMTNMDPVDTATYYCAHHKIERIFDYWGQGTLVTVSS
VL: QSALAQPASVSGSPGQSITISCTGTSSDVGAYNYVSWYQQHPGKAPKLMIYDVSKRPSGVSNRFSGSKSGNTASLTISGLQAEDEADYYCSSYTTSSTVFGGGTKLTVL
notes: also called mAb 2-7; antibody number 2-7
On to B5, for which the binding result in assay [3] was “no binding”.

B6: monoclonal antibody 5-7 (antibody, V domains shown)
VH: QVQLVQSGAEVKKPGASVKVSCKASGYTFTSYYMHWVRQAPGQGLEWMGVINPSGGSTSYAEKFRGRVTMTRDTSTSTVYMELSSLRSEDTAVYYCARDREPHSDSSGYWDSLKYYYYYALDVWGQGTTVTVSS
VL: AIQLTQSPSSLSASVGDRVTITCRASQGISSYLAWYQQKPGKAPELLIYAASTLQSGVPSRFSGSGSGTDFTLTISSLQPEDFATYYCQQLNTYPFTFGPGTKVDIK
notes: also called mAb 5-7; antibody number 5-7
Regarding B6, the binding result in assay [1] is listed as “binds”.

B7: monoclonal antibody 2-30 (antibody, V domains shown)
VH: QVQLVESGGGVVQPGRSLRLSCAASGFTFSSYTMHWVRQAPGKGLEWVAAISYDGNNKYYADSVKGRFTISRDNSKNTLYLQMNSLRAEDTAVYYCARSILYGGGMDVWGQGTTVTVSS
VL: DIQLTQSPSSLSASVGDRVTITCRASQGISSYLAWYQQKPGQAPKLLIYAASTLQSGVPSRFSGSGSGTDFTLTISSLQPEDFATYYCQQLNSYPLTFGGGTKVEIK
notes: also called mAb 2-30; antibody number 2-30
Regarding B7, the binding result in assay [4] is given as “no binding”.

B8: monoclonal antibody 4-20 (antibody, V domains shown)
VH: QVQLLQSGAEVKKPGASVKVSCKASGYSFTSYYMHWVRQAPGQGLEWMGIINPSGGGTTYAQKFQGRVTMTRDTSTSTVYMELSSLRSEDTAVYYCARPGGGSYQEFDYWGQGTLVTVSS
VL: DIQMTQSPSSLSASVGDRVTITCRASQSISSYLNWYQQKPGKAPKLLISAASSLQSGVPSRFSGSGSGTDFTLTISSLQPEDFATYYCQQSYNTLQVTFGGGTKVEIK
notes: also called mAb 4-20; antibody number 4-20
B8: the binding result in assay [4] was “no binding”.

B9: monoclonal antibody 2-4 (antibody, V domains shown)
VH: QVQLVQSGAEVKKPGASVKVSCKASGYTFTGYYMHWVRQAPGQGLEWMGWINPNSGGTNYTQMFQGRVTMTRDTSISTAYMEVSRLRSDDTAVYYCARDRSWAVVYYYMDVWGKGTTVTVSS
VL: QSALTQPPSASGSPGQSVTISCTGTSSDVGGYNYVSWYQQHPGKAPKLMIYEVSKRPSGVPDRFSGSKSGNTASLTVSGLQAEDEADYYCSSYAGSNNLVFGGGTKLTVL
notes: also called mAb 2-4; antibody number 2-4
Regarding B9, the binding result in assay [3] is given as “no binding”.

B10: monoclonal antibody 2-51 (antibody, V domains shown)
VH: QVQLVQSGAEVKKPGASVKVSCKVSGYTLIELSMHWVRQAPGKGLEWMGGFDPEDVETIYAQQFQGRVTMTEDTSTDTAYMELSSLRSEDTAVYYCATGWAYKSTWYFGYWGQGTLVTVSS
VL: QSALTQPPSASGSPGQSVTISCTGTSSDVGGYNYVSWYQQHPGKAPKLMIYEVSKRPSGVPDRFSGSKSGNTASLTVSGLQAEDEADYYCSSYAGSRMGFGGGTKLTVL
notes: also called mAb 2-51; antibody number 2-51
For the molecule B10, in assay [4], the binding result is listed as “no binding”.

B11: monoclonal antibody 2-43 (antibody, V domains shown)
VH: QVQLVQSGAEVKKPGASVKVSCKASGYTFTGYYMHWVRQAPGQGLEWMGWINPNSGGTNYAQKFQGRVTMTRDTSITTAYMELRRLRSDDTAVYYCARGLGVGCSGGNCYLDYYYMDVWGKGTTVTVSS
VL: QSALTQPASVSGSPGQSITISCTGTSSDVGGYNYVSWYQQHPGKAPKLMIYDVSKRPSGVSNRFSGSKSGNTASLTISGLQAEDEGDYYCSSYTSSSTWVFGGGTKLTVL
notes: also called mAb 2-43; monoclonal Ab 2-43
As to B11, the binding result in assay [4] was “no binding”.

B12: monoclonal antibody 2-15 (antibody, V domains shown)
VH: QVQLVQSGAEVKKPGASVRVSCKASGYTFTGYYMHWVRQAPGQGLEWMGWINPISDGTNYAQKFQGWVTMTRDTSISTVYMELSRLRSDDTAVYYCARGGSRCSGGNCYGWAYDAFDIWGQGTMITVSS
VL: QSALTQPASVSGSPGQSITISCTGTSSDVGGYNFVSWYQQHPGKAPKLMIYDVSKRPSGVSNRFSGSKSGNTASLTISGLQAEDEADCYCSSYTSSSTFVFGTGTKVTVL
notes: also called mAb 2-15; antibody number 2-15
For B12, in assay [3], the binding result is listed as “no binding”.

B13: monoclonal antibody 1-68 (antibody, V domains shown)
VH: QVQLVQSGAEVKKPGASVKVSCKVSGYTLIELSMHWVRQAPGKGLEWMGGFDPEDAETIYAQKFQGRVTMTEDTSTDTAYMELSSLRSEDTAVYYCATGWAVAGSSDVWYYYYGMDVWGQGTTVTVSS
VL: QSALTQPPSVSGSPGQSVTISCTGTSSDVGSYNRVSWYQQPPGTAPKLMIYEVSNRPSGVPDRFSGSKSGNTASLTISGLQAEDEADYYCSSYTSSSTYVFGTGTKVTVL
notes: also called mAb 1-68; antibody number 1-68
Take B13: the binding result in assay [1] is reported as “binds”.

B14: monoclonal antibody 1-87 (antibody, V domains shown)
VH: QVQLVQSGAEVKKPGASVKVSCKVSGYTLIELSMHWVRQAPGKGLEWMGGFDPEDAETIYAQKFQGRVTMTEDTSTDTAYMELSSLRSEDTAVYYCATGIAVIGPPPSTYYYYGMDVWGQGTTVTVSS
VL: QSALTQPASVSGSPGQSITISCTGTSSDVGGYNYVSWYQQHPGKAPKLMIYDVSKRPSGVSNRFSGSKSGNTASLTISGLQAEDEADYYCSSYTSSSTYVFGTGTKVTVL
notes: also called mAb 1-87; antibody number 1-87
B14: the binding result in assay [2] is “binds”.
